According to the supplement of paper PMC10567573:

B1: TRIM43 (parent)
chain: NNSWIRKNSTMVNSEDIFLLLCLK
B2: SMOC2 (parent)
chain: DCAGSPQKPLCASDGRTFLSRCEF

Variants of: B1
Experiment: protein stability index of a GFP-peptide fusion (GPS, HEK-293T) (PSI 1-6); higher = more stable
Settings: c terminus: a fixed tail appended
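Note: lentivirally expressed fusions sorted by FACS into six bins by GFP to DsRed ratio, PSI derived from sequencing read proportions per bin multiplied by bin number.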

Compared with NNSWIRKNSTMVNSEDIFLLLCAK [L23A], NNSWIRKNSTMVNSEDIFLLLCCK [L23C] is lower in protein stability index: 2.83 for the first, 1.84 for the second.

Going from NNSWIRKNSTMVNSEDIFLLLCDK [L23D] to NNSWIRKNSTMVNSEDIFLLLCEK [L23E], the protein stability index falls from 1.95 to 1.93.

Compared with NNSWIRKNSTMVNSEDIFLLLCFK [L23F], NNSWIRKNSTMVNSEDIFLLLCGK [L23G] is lower in protein stability index: 3.62 for the first, 1.44 for the second.

Going from NNSWIRKNSTMVNSEDIFLLLCHK [L23H] to NNSWIRKNSTMVNSEDIFLLLCKK [L23K], the protein stability index falls from 2.61 to 1.54.

First: NNSWIRKNSTMVNSEDIFLLLCNK [L23N]
Second: NNSWIRKNSTMVNSEDIFLLLCPK [L23P]
The protein stability index of the first is lower: 1.66 for the first, 2.15 for the second.

Going from NNSWIRKNSTMVNSEDIFLLLCQK [L23Q] to NNSWIRKNSTMVNSEDIFLLLCRK [L23R], the protein stability index falls from 2.38 to 1.55.

NNSWIRKNSTMVNSEDIFLLLCSK [L23S] and NNSWIRKNSTMVNSEDIFLLLCTK [L23T] are the same in protein stability index: 2.42 for the first, 2.42 for the second.

First: NNSWIRKNSTMVNSEDIFLLLCWK [L23W]
Second: NNSWIRKNSTMVNSEDIFLLLCYK [L23Y]
The protein stability index of the first is higher: 3.66 for the first, 2.25 for the second.

First: NNSWIRKNSTMVNSEDIFLLLCLA [K24A]
Second: NNSWIRKNSTMVNSEDIFLLLCLC [K24C]
The protein stability index of the first is higher: 3.16 for the first, 2.79 for the second.

Going from NNSWIRKNSTMVNSEDIFLLLCLD [K24D] to NNSWIRKNSTMVNSEDIFLLLCLE [K24E], the protein stability index rises from 3.92 to 4.39.

Going from NNSWIRKNSTMVNSEDIFLLLCLG [K24G] to NNSWIRKNSTMVNSEDIFLLLCLH [K24H], the protein stability index falls from 3.84 to 2.87.

Going from NNSWIRKNSTMVNSEDIFLLLCLI [K24I] to NNSWIRKNSTMVNSEDIFLLLCLL [K24L], the protein stability index rises from 2.33 to 2.72.

First: NNSWIRKNSTMVNSEDIFLLLCLM [K24M]
Second: NNSWIRKNSTMVNSEDIFLLLCLN [K24N]
The protein stability index of the first is higher: 3.1 for the first, 2.86 for the second.

First: NNSWIRKNSTMVNSEDIFLLLCLP [K24P]
Second: NNSWIRKNSTMVNSEDIFLLLCLQ [K24Q]
The protein stability index of the first is higher: 3.69 for the first, 3.08 for the second.

Going from NNSWIRKNSTMVNSEDIFLLLCLR [K24R] to NNSWIRKNSTMVNSEDIFLLLCLS [K24S], the protein stability index falls from 3.57 to 3.16.

Compared with NNSWIRKNSTMVNSEDIFLLLCLT [K24T], NNSWIRKNSTMVNSEDIFLLLCLV [K24V] is higher in protein stability index: 2.05 for the first, 2.38 for the second.

First: NNSWIRKNSTMVNSEDIFLLLCLW [K24W]
Second: NNSWIRKNSTMVNSEDIFLLLCLY [K24Y]
The protein stability index of the first is lower: 2.28 for the first, 3.18 for the second.

Variants of: B2
Experiment: as above
Settings: c terminus: a fixed tail appended

Compared with ACAGSPQKPLCASDGRTFLSRCEF [D1A], ECAGSPQKPLCASDGRTFLSRCEF [D1E] is higher in protein stability index: 1.89 for the first, 3.69 for the second.

Going from FCAGSPQKPLCASDGRTFLSRCEF [D1F] to GCAGSPQKPLCASDGRTFLSRCEF [D1G], the protein stability index rises from 1.5 to 2.38.

First: HCAGSPQKPLCASDGRTFLSRCEF [D1H]
Second: ICAGSPQKPLCASDGRTFLSRCEF [D1I]
The protein stability index of the first is lower: 2.02 for the first, 2.92 for the second.

Compared with KCAGSPQKPLCASDGRTFLSRCEF [D1K], LCAGSPQKPLCASDGRTFLSRCEF [D1L] is higher in protein stability index: 2.59 for the first, 2.85 for the second.

Going from MCAGSPQKPLCASDGRTFLSRCEF [D1M] to NCAGSPQKPLCASDGRTFLSRCEF [D1N], the protein stability index rises from 1.7 to 2.2.

Going from PCAGSPQKPLCASDGRTFLSRCEF [D1P] to RCAGSPQKPLCASDGRTFLSRCEF [D1R], the protein stability index falls from 2.66 to 1.55.

Compared with SCAGSPQKPLCASDGRTFLSRCEF [D1S], TCAGSPQKPLCASDGRTFLSRCEF [D1T] is higher in protein stability index: 1.93 for the first, 2.59 for the second.

First: VCAGSPQKPLCASDGRTFLSRCEF [D1V]
Second: YCAGSPQKPLCASDGRTFLSRCEF [D1Y]
The protein stability index of the first is higher: 2.35 for the first, 1.72 for the second.

Going from DAAGSPQKPLCASDGRTFLSRCEF [C2A] to DDAGSPQKPLCASDGRTFLSRCEF [C2D], the protein stability index rises from 2.79 to 3.44.

Compared with DEAGSPQKPLCASDGRTFLSRCEF [C2E], DFAGSPQKPLCASDGRTFLSRCEF [C2F] is lower in protein stability index: 3.84 for the first, 3.25 for the second.

First: DGAGSPQKPLCASDGRTFLSRCEF [C2G]
Second: DHAGSPQKPLCASDGRTFLSRCEF [C2H]
The protein stability index of the first is higher: 3.66 for the first, 3.36 for the second.

Compared with DIAGSPQKPLCASDGRTFLSRCEF [C2I], DKAGSPQKPLCASDGRTFLSRCEF [C2K] is higher in protein stability index: 2.25 for the first, 3.03 for the second.

First: DMAGSPQKPLCASDGRTFLSRCEF [C2M]
Second: DNAGSPQKPLCASDGRTFLSRCEF [C2N]
The protein stability index of the first is higher: 2.86 for the first, 2.81 for the second.

Going from DPAGSPQKPLCASDGRTFLSRCEF [C2P] to DQAGSPQKPLCASDGRTFLSRCEF [C2Q], the protein stability index falls from 3.4 to 3.12.

Going from DRAGSPQKPLCASDGRTFLSRCEF [C2R] to DSAGSPQKPLCASDGRTFLSRCEF [C2S], the protein stability index falls from 3.19 to 2.18.

Going from DTAGSPQKPLCASDGRTFLSRCEF [C2T] to DVAGSPQKPLCASDGRTFLSRCEF [C2V], the protein stability index falls from 3.5 to 2.58.

Going from DWAGSPQKPLCASDGRTFLSRCEF [C2W] to DYAGSPQKPLCASDGRTFLSRCEF [C2Y], the protein stability index rises from 2.23 to 2.63.

First: DCDGSPQKPLCASDGRTFLSRCEF [A3D]
Second: DCEGSPQKPLCASDGRTFLSRCEF [A3E]
The protein stability index of the first is lower: 2.95 for the first, 3.01 for the second.

First: DCFGSPQKPLCASDGRTFLSRCEF [A3F]
Second: DCHGSPQKPLCASDGRTFLSRCEF [A3H]
The protein stability index of the first is higher: 3.16 for the first, 2.29 for the second.

Compared with DCIGSPQKPLCASDGRTFLSRCEF [A3I], DCKGSPQKPLCASDGRTFLSRCEF [A3K] is higher in protein stability index: 2.71 for the first, 2.89 for the second.

First: DCLGSPQKPLCASDGRTFLSRCEF [A3L]
Second: DCNGSPQKPLCASDGRTFLSRCEF [A3N]
The protein stability index of the first is higher: 2.73 for the first, 2.66 for the second.

Compared with DCPGSPQKPLCASDGRTFLSRCEF [A3P], DCQGSPQKPLCASDGRTFLSRCEF [A3Q] is higher in protein stability index: 2.37 for the first, 2.82 for the second.

Compared with DCRGSPQKPLCASDGRTFLSRCEF [A3R], DCSGSPQKPLCASDGRTFLSRCEF [A3S] is lower in protein stability index: 2.38 for the first, 2.32 for the second.

Going from DCTGSPQKPLCASDGRTFLSRCEF [A3T] to DCVGSPQKPLCASDGRTFLSRCEF [A3V], the protein stability index rises from 2.56 to 2.66.

First: DCWGSPQKPLCASDGRTFLSRCEF [A3W]
Second: DCYGSPQKPLCASDGRTFLSRCEF [A3Y]
The protein stability index of the first is higher: 2.21 for the first, 2.02 for the second.

First: DCAASPQKPLCASDGRTFLSRCEF [G4A]
Second: DCACSPQKPLCASDGRTFLSRCEF [G4C]
The protein stability index of the first is lower: 2.77 for the first, 3.17 for the second.

First: DCADSPQKPLCASDGRTFLSRCEF [G4D]
Second: DCAESPQKPLCASDGRTFLSRCEF [G4E]
The protein stability index of the first is higher: 4.36 for the first, 3.83 for the second.

Compared with DCAFSPQKPLCASDGRTFLSRCEF [G4F], DCAHSPQKPLCASDGRTFLSRCEF [G4H] is higher in protein stability index: 2.23 for the first, 3.44 for the second.

Going from DCAISPQKPLCASDGRTFLSRCEF [G4I] to DCAKSPQKPLCASDGRTFLSRCEF [G4K], the protein stability index falls from 2.87 to 2.65.

First: DCALSPQKPLCASDGRTFLSRCEF [G4L]
Second: DCAMSPQKPLCASDGRTFLSRCEF [G4M]
The protein stability index of the first is higher: 2.56 for the first, 2.32 for the second.
